Molecular target: T1, Recombinant IRF5 (interferon regulatory factor 5), biotin-labeled (UniProt Q13568 1-498, biotin (EZ-Link NHS-PEG4-Biotin, ratio 1:1))
T1 construct: Interferon regulatory factor 5 (IRF5), recombinant; also called B-IRF5; source: made and purified by Top Gene Technologies (Montreal, Quebec, Canada)
T1 sequence (looked up): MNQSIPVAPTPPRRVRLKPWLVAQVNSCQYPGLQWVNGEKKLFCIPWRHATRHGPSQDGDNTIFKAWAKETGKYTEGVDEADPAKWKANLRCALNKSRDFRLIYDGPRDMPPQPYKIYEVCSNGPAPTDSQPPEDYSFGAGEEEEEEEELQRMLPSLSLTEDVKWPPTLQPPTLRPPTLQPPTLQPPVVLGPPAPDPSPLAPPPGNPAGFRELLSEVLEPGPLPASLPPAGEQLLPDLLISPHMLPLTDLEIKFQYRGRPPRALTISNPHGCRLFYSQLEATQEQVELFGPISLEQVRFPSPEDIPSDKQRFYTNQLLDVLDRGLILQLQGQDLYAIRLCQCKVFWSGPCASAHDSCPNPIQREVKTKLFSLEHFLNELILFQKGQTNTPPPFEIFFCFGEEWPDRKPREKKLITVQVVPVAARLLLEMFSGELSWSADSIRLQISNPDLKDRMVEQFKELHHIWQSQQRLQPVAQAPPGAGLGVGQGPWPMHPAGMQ
Assay: BLI; Octet RED; biotin-labeled IRF5 loaded onto streptavidin biosensors in PBS for 15 min; sensors incubated in PBS with increasing concentrations of IRF5D for 10 min; n = 3
Settings: both partners purified

Kd: 3.72 µM
Binder: Ac-ELDWDADDIRLQIDNPD-NH2 [IRF5D (Ac-ELDWDADDIRLQIDNPD-NH2), IRF5 decoy peptide]

— PMC4822818, “An IRF5 Decoy Peptide Reduces Myocardial Inflammation and Fibrosis and Improves Endothelial Cell Function in Tight-Skin Mice” (PLoS ONE, 2016)
